How the values were obtained:
[1] = target: Paracentrotus lividus RAF, 6 MYC tags (Paracentrotus lividus); assay: co-IP; lysates of co-transfected HEK293T cells (200 ul at 0.5 mg/ml); mouse anti-myc 9E10 overnight at 4 °C, Dynabeads Pan mouse IgG 2 h; five washes in 50 mM Tris HCl pH 7.5, 150 mM NaCl, 10% glycerol, 0.2% Triton X100, 1 mM EDTA; blots with rabbit anti-HA and anti-Myc
[2] = target: Paracentrotus lividus RAF, 6 MYC tags; assay: co-immunoprecipitation (IP anti-Myc of Pl. RAF, blot quantified); settings: parent: 1; read off a plot

Paracentrotus lividus RAF, 6 MYC tags (Paracentrotus lividus), sequence (main, as listed by the source): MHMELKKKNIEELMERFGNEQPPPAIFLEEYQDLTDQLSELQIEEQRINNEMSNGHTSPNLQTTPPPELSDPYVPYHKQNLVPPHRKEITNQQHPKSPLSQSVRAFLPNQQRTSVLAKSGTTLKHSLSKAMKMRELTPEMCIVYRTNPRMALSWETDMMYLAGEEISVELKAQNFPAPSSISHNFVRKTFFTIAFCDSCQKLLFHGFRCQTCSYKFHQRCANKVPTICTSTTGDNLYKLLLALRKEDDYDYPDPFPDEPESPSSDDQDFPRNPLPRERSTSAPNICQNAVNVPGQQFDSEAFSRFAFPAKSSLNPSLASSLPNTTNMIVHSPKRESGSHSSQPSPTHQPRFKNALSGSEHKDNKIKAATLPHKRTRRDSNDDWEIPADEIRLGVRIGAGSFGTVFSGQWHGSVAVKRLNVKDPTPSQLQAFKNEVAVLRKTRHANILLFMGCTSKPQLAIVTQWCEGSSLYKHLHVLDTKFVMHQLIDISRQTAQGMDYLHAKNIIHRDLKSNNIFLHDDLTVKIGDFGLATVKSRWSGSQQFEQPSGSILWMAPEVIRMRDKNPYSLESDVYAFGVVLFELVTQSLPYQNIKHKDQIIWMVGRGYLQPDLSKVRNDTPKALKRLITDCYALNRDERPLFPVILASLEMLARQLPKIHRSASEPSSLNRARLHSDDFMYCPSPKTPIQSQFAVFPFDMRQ

fold change of RAF co-immunoprecipitated, against wild-type KSR3 [1] [fold]	ratio to parent (arbitrary units) [2]	Substance
1.5		Paracentrotus lividus KSR3 S361E (natural protein)
	0.46	Paracentrotus lividus KSR3, wild type, 3HA-tagged S361E; R364H

— PMC10322840
